Assay: yeast display, Sf9 membrane polyspecificity reagent, FACS + sequencing; frameworks hold sequencing errors
How it was run: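 Galactose induction of a Saccharomyces cerevisiae BJ5465 synthetic nanobody display library ran 36–48 hours. The cells were then stained for 1 hour at 4 °C with 10% biotinylated, detergent-solubilized Sf9 membrane reagent, pulled down on streptavidin microbeads and FACS-sorted into low and high (top ~1%) gates on expression and reagent-binding fluorescence. Labels for polyreactivity follow the gate of origin.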

Row | Sequence | polyreactivity (PSR sort gate)
1 | QVQLVESGGGLVQAGGSLRLSCAASGRTFVPYAMGWYRQAPGKERELVARIDSSGGSTYYADSVKGRFTISRDNAKNTVYLQMNSLKPEDTAVYYCAAVFYYWSLRSYYWGQGTQVTVSS | high polyreactivity
2 | QVQLVESGGGLVQAGGSLRLSCAASGFIFLVNAMGWYRHAPGKERELVAAITTSGASTYYADSVKGRFTISRDNAKNTVYLQMNSLKPEDTAVYYCAAGSYARPEYGYWGQGTQVTVSS | low polyreactivity
3 | QVQLVESGGGLVQAGGSLRLSCAASGSIFTYNTMGWYRQAPGKERELVAAISSGGRTYYADSVKGRFTISRDNAKNTVYLQMNSLKPEDTAVYYCAARYYFWGQGTQVTVSS | high polyreactivity
4 | QVQLVESGGGLVQAGGSLRLSCAASGRTFQYYAMGWYRQAPGKERELVAAITRGDSTYYADSVKGRFTISRDNAKNTVYLQMNSLKPEDTAVYYCNAKLYKPPFDYWGQGTQVTVSS | low polyreactivity
5 | QVQLVESGGGLVQAGGSLRLSCAASGSIFHPNAMGWYRQAPGKERELVAAISIGGDTYYADSVKGRFTISRDNAKNTVYLQMNSLKPEDTAVYYCAVTYVGHVYEYYYWGQGTQVTVSS | low polyreactivity
6 | QVQLVESGGGLVQAGGSLRLSCAASGRTFSRNAKGWYRQAPGKERELVAAISWSGGSTYYADSVKGRFTISRDNAKNTVYLQMNSLKPEDTAVYYCAKVLGRTYNYWGQGTQVTVSS | high polyreactivity
7 | QVHLVESGGGLVQAGGSLRLSCAASGYTFGHYAMGWYRQAPGKERELVAVITSGGSTNYADSVKGRFTISRDNAKNTVYLQMNSLKPEDTAVYYCAADLYFYYVWIRDYWGQGTQVTVSS | low polyreactivity
8 | QVQLVESWGGLVQAGGSLRLSCAASGSIFDNYAMGWYRQAPGKERELVAAISWSGGRTYYADSVKGRFTISRDNAKNTVYLQMNSLKPEDTAVYYCAAYVYTSFLYYYWGQGTQVTVSS | high polyreactivity
9 | QVQLVESGGGLVQAGGSLRLSCAASGFTFPYYAMGWYRQAPGKERELVAAISSGGNTNYADSVKGRFTISRDNAKNTVYLQMNSLKPEDTAVYYCAAVFLRYLNWSVKYDYWGQGTQVTVSS | low polyreactivity
10 | QVQLVESGGGLVQAGGSLRLSCAASGNIFGWYAMGWYRQAPGKERELVAAISSGGRTNYADSVKGRFTISRDNAKNTVYLQMNSLKPEDTAVYYCAAERKLYGLYDYWGQGTQVTVSS | low polyreactivity
11 | QVQLVESGGGLVQAGGSLRLSCAASGSSFDIYVMGWYRQAPGKERELLAAISRVGNTSYADSVKGRFTISRDNGKNTVYLQMNKHETGIYRGHYCGAGLVGAGYITYNDYDYWGQGTQVSVSS | low polyreactivity
12 | QVQLVDSGGGLVQAGGSLRLICAASGRTFGGNTMGWYREAPGKERELVAAISRRGGSTYYADSVKGRFSISRDNAKNTVYLQMNSLKPEDTAVYYCNKDGPSYSSYDYWGQGTQVTVSS | low polyreactivity
13 | QVQLVESGGGLVQAGGSLRLSCAASGITLKPNAMGWYRQAPGKERELVAAIDSGGSTNYADSVKGRFTISRDNAKNTVYLQMNSLKPEDTAVYYCAAPYQDRDLQVSYSTYEGGYWGQGTQVTVSS | low polyreactivity
14 | QVQLVESGGGLVQAGGSLRLSCAASGSTFSPYAMGWYRQAPGKERELVANITISGGSTYYADSVKGRFTISRDNAKNTVYLQMNSLKPEDTAVYYCNADSLIRWLFTVVIFDYWGQGTQVTVSS | low polyreactivity
15 | QVQLVESGGGLVQAGGSLSLSCDASGSIFRSNAMGWYRQAPGKERELVAAISRSGGRTYYADSVKGRFTISRDNAKNTVYLQMNSLKPEDTAVYYCAAQVVRSLKYEYWGQGTQVTVSS | high polyreactivity
16 | QFQLVESGGGLVQAGGSLRLSCAASGFIDNTMGWYRQAPGKQRELVATISWSDGSTYYADSVKGRFTISRDNAKITVYLLMNSLKPEDTAVYYCAATTDALVGRPRYDYWGQGTQVTVSS | low polyreactivity
17 | QVQLVESGGGIVQAGGSLRLSCAASGSIFWVNVMGWYRQAPGKEREFVAAITRSGGSTYYADSVKGRFTISRDNAKNTVYLQMNSLKPEDTAVYYCNRRGRRGYDYWGQGTLVTVSS | high polyreactivity
18 | QVQLVESGGGLVQAGGSHRLSSAASARTFQDNPMGWYRQAPGKERELVAAISWRGGSTNYADSVKGRFTITRDNAKNTVYLQMNSLKPEDTAVYYCTRDRRKYGKLDYWGQGTQVTVSS | low polyreactivity
19 | QVQLVESGGGLVQAGGSLRLSCAASGFTFVRYAMGWYRQAPGKERELVAVISRSGGSTNYADSVKGRFTISRDNAKNTVYLQMNSLKPEDTAVYYCAASLQYRRLVKGGDYWGQGTQVTVSW | high polyreactivity
20 | QVHHVESGGGLVQAGGSLRLSCAASGFIFTYNAMGWYRQAPGKERELVAAIRSGTNTSYADSVKGRFTISRDNAKNTVYLQMNSLKPEDTAVYYCNREVPEYQGFITPDGYWGQGTQVTVSS | low polyreactivity
21 | QVQLVESGGGLVQAGGSLRLSCAASGRTFQYYAMGWYRQAPGKERELVAAISWSGARTYYADSVKGRFTISRDNAKNTVYLQMNSLKPEDTAVYYCAADRYWISLWYIMGYWGQGTQVTVSS | high polyreactivity
22 | QVQLVDSGGGLVQAGGSLRLSCAASGRTFGVYAMGWYRQAPGKERELVAVINRSGGSTYYADSVKGRFTISRDNAKNTVYLQMNSLKPEDTAVYYCAARVTSHMYYWGQGTQVTVSS | high polyreactivity

Row | Sequence | polyreactivity (PSR sort gate)
23 | QVQLVESGGGLVQAGGSLRLSCAASGSARYDMGWYRQPNGKERELVAAISRRGGSTFYADSVKGRFTISRDNAKNTVYLQMNSLKPEDTAVYYCAADGRISYDYWGQGTQVTVSS | low polyreactivity
24 | QVQLVESGGGLVQAGGSLRLSCAASGRIVGRYAMGWYRQAPGKERELVAAISWSGGSTYYADSVKGRFTISRDNAKNTVYLQKNSLKPEDTAGYYCAADYDSYFRLYNYWGQGTQVTVSS | high polyreactivity
25 | QVQLVESGGGFVQAGGSLRLSCAGSGRIYYRYAMGWYSQERGKERELVAAISGSVGSTYADYVKGRFTISRDNAKNTVYLQMKSLKPEDTAFYYCARETYGRYGAYDYWGQGTQVTVSS | low polyreactivity
26 | QVQLVESGGGLVQAGGSLRLSCAASGRIFWLYAMGWYRQAPGKERELVAVISWSGGTTYYADSVKGRFTISRDNAKNTVYLQMNSLKPEYTAVYYCAAQVGYYTNYGEFDYLGQGTQVTVSS | low polyreactivity
27 | QVQLVESGGGLVQAGGSLRLSCAASGTIFVPYAMGWYRQAPGKERELVAVITSGGSTYYADSVKGRFTISRDNAKNTVYLQMNSLKPEDTAVYYCNADLYYVWSTLSQFDYWGQGTQVTVSS | low polyreactivity
28 | QVQLVESGGGLVQAGGSLRLSCAASGRTFWYYTMGWYRQAPGKEREFVAAISYSAGNTYYADSVKGRFTISRDNAKNTVYLQMNSLKPEDTAVYYCAVQRGYRSNAYDYWGQGTQVTVSS | high polyreactivity
29 | QVQLVESGGCLVQAGGSLRLSCAASGRTFVNNAMGWYRQAPGKYRELVAAITRSGGLTYSADSVKGRFTISRDHAKNTVYLQMTMLKPEYTAVYDCATAIVRLRHDDDWGQGTQVTVSS | high polyreactivity
30 | QVQLVESGGGLVQAGGSLRLSCAASGFTIYYYAMGWYRQAPGKERELVASITSGGSTYYADSVKGRFTISRDNAKNTVYLQMNSLKPEDTAVYYCAKTRFHSKEGDYWGQGTQVTVSS | low polyreactivity
31 | QVQLVESGGGLVQAGGSLRISCAASGRILYRYAMGRYRQAPGKERELVAAITWRGGTTYYADSVKGRFTISRDNAKNTVYLQMNSLKPEDTAVYYCNADWWRTLESDYWGQGTQVTVSS | low polyreactivity
32 | QVQLVESGGGLVQAGGSLRLSCAASGSTFPYNAMGWYRQAPGKERELVAVITTVGSTYYADSVKGRFTISRDNAKNTVYLQMNSLKPEDTAVYYCAAANTQSPGYDYWGQGTQVTVSS | low polyreactivity
33 | QVQLVESGGGLVQAGGSLRLSCAASGSIFPLYAMGWYRQAPGKERELVADITVSGGSTYYADSVKGRFTISRDNAKNTVYLQMNSLKPEDTAVYYCNADDRSPFPDYWWYPYDYDYWGQGTQVTVSS | low polyreactivity
34 | QVQLVESGGGLVQAGGSLRLSCAASGFIFSKYAMGWYRQAPGKERELVAAITGGGSTNYADSVKGRFTISRDNAKNTVYLQMTSLKPEDTAVYYCAARGFTLTDYDRDLYYWGQGTQVTVSS | low polyreactivity
35 | QVQHVESGGGLVQAGGSLRLSCAASGSIFVRNAMGWYRQAPGKEREFVAAISRSGDSTNYADSVKGRFTISRDNAKNTVYLQMNSLKPEETAVYYCAVGYRYLKWVDYWGQGTQVTVSS | high polyreactivity
36 | QVQLVESGGGLVQAGGSLRLSCAASGRTFRHNAMGWYRQAPGKERELVAANSSGGSTYYADSVKGRFTISRDNAKNTVYLQLYSLKREDTAVYYCAASRYRPYGGTTTDYWGQGTQLTVSS | high polyreactivity
37 | QVQLVESGGGLVQAGGSLRLSCADSGITFGLYAMGWYRQAPGKERELVAAISSSGGRTYYADSVKGRFTISRDIAKKTVYLQMYSLKPEDTAVYVCATDTDGFAANRPAGDGDWGQGTQVTVSS | high polyreactivity
38 | QVQLVESCGGLVQAGGSLRLSCAASGRIFGIYSMGWYRQAPGKEREVVARITKSGGSTYYADSVKGRFTISRDNAKNTVYLQMNSLKPEDTAVYYCAASYYGKRDRAGPYYSFDYWGQGTQVTVSS | high polyreactivity
39 | QVQLVESGGGLVQAGGSLRLSCAASGGIFAPNAKGWYRQAPGKEREFVAAISTGGGSTRYADSVKGRFTISRDNAKYTVYLQMNSLKPEDTAVYYCAATRVGVRRMDYWGQGTQVTVSS | low polyreactivity
40 | QVQLVESGGGLVQAGGSLRLSCAAYGNTFSQYAKGWYRQAPGKERELVATISKSSGSTSYTDSVKGRFTISRDNAKNTVYLQLNSLKPEDSAVYYCNADSSDVYHHLGVLFFSTWYDYWGQGTLVTVSS | low polyreactivity
41 | QVQLVESGGGLVQAGGSLRISCAASGIIFSYYAMGWYRQAPGKERELVAAIRENGGSTYYADSVKGRFTISRDNAKNTVYLQMNSLKPEDTAVYYCAVDTTYYAGYEYDYWGQGTQVTVSS | low polyreactivity
42 | QVQLVESGGGLVQAGGSLRLSCAASGITFPRNAMGWYRQAPGKERELVAAISARGGNTYYADSVKGRFTISRDNSKNTVYLQMNSLKPEDTAVYYCNALGSSYSEPSEYDYWGQGTQVTVSS | low polyreactivity
43 | QVQLVESGGGLVQAGGSLRLSCAASGRTFWYYGMGWYRQAPGKERELVAAISRSGGRTSYADSVKGRFTISRDNAKNTVYLQMNSLKPEDTAVYYCATDGYYRYGYWGQGTQVTVAS | high polyreactivity

From the nanobody polyreactivity screen of Harvey et al. (2022)
